Results as given in US20230295313A1.

Tests used:
[1] = biological target: biotin-labeled human IL1RAP (human) (UniProt Q9NPH3); assay: competition ELISA; competitor: capture mAb001 coated; biotin-hIL1RAP
[2] = biological target: biotin-labeled human IL1RAP (human) (UniProt Q9NPH3); assay: competition ELISA; competitor: capture mAb016 coated; biotin-hIL1RAP
[3] = biological target: biotin-labeled human IL1RAP (human) (UniProt Q9NPH3); assay: competition ELISA; competitor: capture mAb048 coated; biotin-hIL1RAP
[4] = biological target: biotin-labeled human IL1RAP (human) (UniProt Q9NPH3); assay: competition ELISA; competitor: capture mAb063 coated; biotin-hIL1RAP
[5] = biological target: biotin-labeled human IL1RAP (human) (UniProt Q9NPH3); assay: competition ELISA; competitor: capture mAb067 coated; biotin-hIL1RAP
[6] = biological target: biotin-labeled human IL1RAP (human) (UniProt Q9NPH3); assay: competition ELISA; competitor: capture mAb117 coated; biotin-hIL1RAP

biotin-labeled human IL1RAP (human), sequence (Q9NPH3 21-367 limits assumed): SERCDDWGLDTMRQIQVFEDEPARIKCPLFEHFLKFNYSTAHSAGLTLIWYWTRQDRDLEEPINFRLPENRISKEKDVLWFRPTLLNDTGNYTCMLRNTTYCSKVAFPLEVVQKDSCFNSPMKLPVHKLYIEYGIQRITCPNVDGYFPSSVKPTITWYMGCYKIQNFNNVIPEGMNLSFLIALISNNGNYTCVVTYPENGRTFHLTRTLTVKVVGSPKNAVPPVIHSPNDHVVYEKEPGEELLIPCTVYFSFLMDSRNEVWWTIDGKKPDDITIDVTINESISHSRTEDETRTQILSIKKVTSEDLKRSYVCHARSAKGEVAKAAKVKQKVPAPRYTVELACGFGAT

Row | Binder | % inhibition [1] [%] | % inhibition [2] [%] | % inhibition [3] [%] | % inhibition [4] [%] | % inhibition [5] [%] | % inhibition [6] [%]
1 | murine mAb001 (antibody, V domains shown) VH: QVQLQQPGAELVRPGSSVKLSCKASGYTFTSYWMDWVKQRPGQGLEWIGNIYPSDSKTHYNQKFKDKATLTVDKSSSTAYMQLSSLTSEDSAVYYCARDYYGSIGMDYWGQGTSVTVSS VL: DIQMTQSPSSLSASLGERVSLTCRASQEISGYLSWLQQKPDGTIKRLIYAASTLDSGVPKRFSGSRSGSDYSLTISSLESEDFADYYCLQYASYPWTFGGGTKLEIK | 93 | 90 | 68 | 75 | 76 | 82
2 | murine mAb016 (antibody, V domains shown) VH: QVQLQQPGAELVRPGSSVKLSCKASGYTFTSYWMDWVKQRPGQGLEWIGNIYPSDSATHYNQKFKDKATLTIDKSSSTAYMQLSSLTSEDSAVYYCARDYYGSIGMDSWGQGTSVTVSS VL: DIQMTQSPSSLSASLGERVSLTCRASQEISDYLSWLQQKPDGTIKRLIYAASTLDSGVPKRFSGSRSGSDYSLTISSLESEDFADYYCLQYASFPWTFGGGTKLEIK | 95 | 94 | 78 | 80 | 76 | 89
3 | murine mAb117 (antibody, V domains shown) VH: QAYLQQSGAELVRPGASVKMSCKASGYTFTSYNMHWVKQSPRQGLEWVGVFYLGNGDTSYNEKFKGKATLTVDKSSSTAYMQLSSLTSEDSAVYFCARPGGYANWYFDVWGTGTTVTVSS VL: DIVMTQSQKFMSTSVGDWVSVTCKASQNVGTEVSWYQQKPGQSPNTLIYSASYRHSGVPDRFTGSGSGTEFTLTITNVQSEDLADYFCQQYNSFPLTFGAGTKLDLK | 93 | 98 | 83 | 87 | 86 | 95
4 | murine mAb048 (antibody, V domains shown) VH: QVQLQQPGADLVKPGASVKLSCKAYGYTFFSYWMHWVRQRPGQGLEWIGMIHPNSGTTNNNEKFKSKATLTVDKSFSTAYMQLSSLTSEDSAVYYCARGYSNYDFDYWGQGTILTVSS VL: DIKMTQFPSSMYASLGERVTITCKASQDINTYLIWIQQKPGKSPKTLIYRANRLADGVPSRFSGSGSGQDSSLTISSLEHEDMGIYYCLQYDEFPYTFGGGTKLEIK | 95 | 98 | 84 | 86 | 90 | 94
5 | murine mAb067 (antibody, V domains shown) VH: QVKLHQSGAELAKPGASVKMSCKASGYTFNSYWIHWVKQRPGQGLEWIGYNNPTSGYSEYNQKFTDKATLSADKSSSTAYMQLSSLTSEDSAVYYCVREYGDLFAYWGQGTLVTVSA VL: NIVMTQSPKSMSMSVGERVTLSCKASENVGYSVSWFQQKPDQSPKLLIYGASNRYTGVPDRFTGSGSATDFTLTISTVQAEDLADYHCGQIYIYPYTFGGGTKLEIK | 94 | 97 | 83 | 72 | 87 | 91
6 | mAb063 (antibody, V domains shown) VH: EVQLQQSGPELVKPGASVKISCKASGYTFTDYYMNWVKQSHGKSLEWIGHINPNSGSTTYTEKFKDKATLTVDKSSSTAYMELRSLTSDDSAVYYCVRRIGKNWHCDVWGTGTTVTVSS VL: DIVLTQSPASLAVSLGQRATISCRASESVNFHGTHLMHWYQQKPGQAPKLLIYAASNLDSGVPARFSGSGSETDFTLNIHPVEEEDAATYFCQQSIEDPFTFGSGTYLEIK | 94 | 97 | 82 | 96 | 87 | 92
